Measured values: PMC6044281, “Cooperative Domain Formation by Homologous Motifs in HOIL-1L and SHARPIN Plays A Crucial Role in LUBAC Stabilization” (Cell reports, 2018)
One block for each molecule: values may come before it.

B1: mSHARPIN_(163–341) (domain or fragment, mouse, UniProt Q91WA6 163-341, looked up)
chain: SSGNFKKEELATRLSQAIAGGDEKAAAQVAAVLAQHHVALNVQLMEAWFPPGPIRLQVTVEDATSVLSSSSSAHVSLKIHPHCSIAALQDQVFSEFGFPPAVQRWVIGRCLCMPERSLASYGVSQDGDPAFLYLLSAPREVSGQSLQNSKMDRKLGLFPQSLGLPHDLQPSSSSLPSPS
B2: mHOIL-1L_(1–140) (domain or fragment, mouse, UniProt Q9WUB0 1-140, looked up)
chain: MDEKTKKAEEMALSLARAVAGGDEQAAIKYATWLAEQRVPLRVQVKPEVSPTQDIRLCVSVEDAYMHTVTIWLTVRPDMTVASLKDMVFLDYGFPPSLQQWVVGQRLARDQETLHSHGIRRNGDGAYLYLLSARNTSLNP
notes: mouse HOIL-1L, LTM and UBL, aa 1-140; Used as SPR analyte and in the crystal; also called HOIL-1L LTM-UBL (aa 1–140); mHOIL-1L containing UBL (aa 1–140)
B5: GST-mHOIP_(466–630) (domain or fragment, mouse, UniProt Q924T7 466-630, looked up)
chain: SCGDPEKQRQDKMRKEGLQLVSMIQEGETAGASPEEVFSALQYSGTEVPLQWLRSELSYVLEMVAELAGQQDPELGAFSCQEARKAWLDRHGNLDEAVEECVRARRRKVHELQSLGFGPKEGSLQALFQHGGDVARALTELQRQRLEPFHQRLWDRDPEPTPCWD
notes: Captured on the SPR chip via an anti-GST antibody; also called mHOIP fragment containing the UBA domains; not shown: GST, N-terminal, kept
B6: mHOIP_(474–630) (domain or fragment, mouse, UniProt Q924T7 474-630, looked up)
chain: RQDKMRKEGLQLVSMIQEGETAGASPEEVFSALQYSGTEVPLQWLRSELSYVLEMVAELAGQQDPELGAFSCQEARKAWLDRHGNLDEAVEECVRARRRKVHELQSLGFGPKEGSLQALFQHGGDVARALTELQRQRLEPFHQRLWDRDPEPTPCWD
notes: also called double-UBA (D-UBA) domain

What was measured:
GST-mHOIP_(466–630) [1] = biological target: B5; experiment: SPR; conditions: response read at end of injection (about 185 s); GST-mHOIP D-UBA WT immobilized with anti-GST antibody; parent: est. 270; read off a plot
mHOIP_(474–630) = biological target: B6; experiment: SEC; analytical size-exclusion chromatography of the LUBAC core subunits; conditions: both partners purified
mHOIL-1L_(1–140) = biological target: B2; experiment: as above; conditions: both partners purified
GST-mHOIP_(466–630) [2] = biological target: B5; experiment: SPR; GST-mHOIP D-UBA (aa 466–630; WT or mutant) immobilised on the sensor chip via an anti-GST antibody; one UBL-containing fragment alone as analyte; conditions: both partners purified
mSHARPIN_(163–341) = biological target: B1; experiment: crystal structure; LUBAC ternary complex core; sitting-drop vapor diffusion at 20°C, 1.8 M magnesium sulfate, 0.1 M MES pH 6.5; 2.4 Å; conditions: both partners purified
[3] = biological target: T1, mHOIL-1L_(1–140) and mSHARPIN_(163–301) applied together (mouse, UniProt Q9WUB0 1-140; Q91WA6 163-301); experiment: SPR; GST-mHOIP D-UBA (aa 466–630; WT or mutant) immobilised via an anti-GST antibody; HOIL-1L and SHARPIN fragments applied together as analytes (500 mg/ml each as printed); stability judged by dissociation; conditions: both partners purified
T1 construct: mouse HOIL-1L aa 1-140, as m2; The two fragments were mixed and applied together as one SPR analyte; they heterodimerise through their LTMs; also called the two UBL-containing proteins applied simultaneously; both proteins together
T1 sequence (looked up) 1: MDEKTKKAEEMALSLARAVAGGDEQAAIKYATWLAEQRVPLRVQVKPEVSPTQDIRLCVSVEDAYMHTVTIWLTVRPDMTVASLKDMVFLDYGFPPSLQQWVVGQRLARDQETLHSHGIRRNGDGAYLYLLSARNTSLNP
T1 sequence (looked up) 2: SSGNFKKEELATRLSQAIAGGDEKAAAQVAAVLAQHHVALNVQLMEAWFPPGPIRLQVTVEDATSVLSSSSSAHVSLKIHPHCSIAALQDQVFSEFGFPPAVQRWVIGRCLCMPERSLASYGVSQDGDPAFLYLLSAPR

mHOIL-1L_(1–189)-strep = biological target: T2, mHOIL-1L_(1–189)-strep (mouse, UniProt Q9WUB0 1-189); experiment: SPR; mHOIL-1L_(1–189)-strep immobilised on the sensor chip with anti-strep antibody; MBP-mSHARPIN fragments as analytes; conditions: both partners purified
T2 construct: mouse HOIL-1L LTM-UBL, aa 1-189; Captured on the SPR chip with an anti-strep antibody; also called HOIL-1L_(1–189) (LTM-UBL); not shown: strep, C-terminal, kept
T2 sequence (looked up): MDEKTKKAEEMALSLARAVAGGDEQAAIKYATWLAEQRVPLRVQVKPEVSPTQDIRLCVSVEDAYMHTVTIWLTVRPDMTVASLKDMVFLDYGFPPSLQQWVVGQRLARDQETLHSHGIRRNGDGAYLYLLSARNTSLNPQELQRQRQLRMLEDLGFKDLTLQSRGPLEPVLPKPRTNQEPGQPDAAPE

Molecule: B1
stoichiometry N (mHOIP_(474–630)): 1 | stoichiometry N (mHOIL-1L_(1–140)): 1

Molecule: B2
Kd (GST-mHOIP_(466–630) [2]): 1340 nM | stoichiometry N (mHOIP_(474–630)): 1 | binding result (mSHARPIN_(163–341)): binds

B3: GST-mHOIP D-UBA (aa 466–630) UBA2^mut (domain or fragment, mouse, UniProt Q924T7 466-630, looked up)
chain: SCGDPEKQRQDKMRKEGLQLVSMIQEGETAGASPEEVFSALQYSGTEVPLQWLRSELSYVLEMVAELAGQQDPELGAFSCQEARKAWLDRHGNLDEAVEECVRARRRKVHELQSLGFGPKEGSLQALFQHGGDVARALTELARQRAEPAHQRLWDRDPEPTPCWD
notes: also called UBA2^mut [Q607A/L611A/F614A]; not shown: GST, N-terminal, kept
binding result [3]: binds

Molecule: B5
koff [3]: 0.000111 s⁻¹

Molecule: B6
binding result (mSHARPIN_(163–341)): binds

B8: MBP-mSHARPIN UBL_(163–301) (domain or fragment, mouse, UniProt Q91WA6 163-301, looked up)
chain: SSGNFKKEELATRLSQAIAGGDEKAAAQVAAVLAQHHVALNVQLMEAWFPPGPIRLQVTVEDATSVLSSSSSAHVSLKIHPHCSIAALQDQVFSEFGFPPAVQRWVIGRCLCMPERSLASYGVSQDGDPAFLYLLSAPR
notes: not shown: MBP, N-terminal, kept
Kd (mHOIL-1L_(1–189)-strep): 2040 nM | koff (mHOIL-1L_(1–189)-strep): 0.00361 s⁻¹

Results, then the molecule that gave them:

response (GST-mHOIP_(466–630) [1]): 70 RU
Molecule: mHOIL-1L_(1–140) and mSHARPIN_(163–301) applied together (from UniProt Q9WUB0;Q91WA6) mSHARPIN: L176A; I180A

response (GST-mHOIP_(466–630) [1]): 90 RU
Molecule: mHOIL-1L_(1–140) and mSHARPIN_(163–301) applied together (from UniProt Q9WUB0;Q91WA6) mHOIL-1L: L15A; V19A

binding result [3]: binds
B4: GST-mHOIP D-UBA (aa 466–630) UBA1^mut (domain or fragment, mouse, UniProt Q924T7 466-630, looked up)
chain: SCGDPEKQAQDKMRKEGAQLASMIQEGETAGASPEEVFSALQYSGTEVPLQWLRSELSYVLEMVAELAGQQDPELGAFSCQEARKAWLDRHGNLDEAVEECVRARRRKVHELQSLGFGPKEGSLQALFQHGGDVARALTELQRQRLEPFHQRLWDRDPEPTPCWD
notes: also called UBA1^mut [R474A/L483A/V486A]; not shown: GST, N-terminal, kept

Kd (GST-mHOIP_(466–630) [2]): 16000 nM
B7: mSHARPIN_(163–301) (domain or fragment, mouse, UniProt Q91WA6 163-301, looked up)
chain: SSGNFKKEELATRLSQAIAGGDEKAAAQVAAVLAQHHVALNVQLMEAWFPPGPIRLQVTVEDATSVLSSSSSAHVSLKIHPHCSIAALQDQVFSEFGFPPAVQRWVIGRCLCMPERSLASYGVSQDGDPAFLYLLSAPR
notes: No tag is named for these experiments; it may be the same MBP fusion as m12; also called SHARPIN LTM-UBL
